Assay results as given in article PMC5034068.

Key:
[1] = biological target: FKBP fused to the N terminus of TRF2 ΔB (FKBP-TRF2 ΔB), Myc-tagged
[2] = biological target: TRF2 (endogenous in HeLa cells) (human (endogenous in HeLa)) (UniProt Q15554); assay: proximity ligation; Duolink in situ PLA in fixed HeLa cells with anti-TRF2 and anti-histone H3 antibodies; cells scored for 10 or more signals in nuclei
Sequence of UniProt Q15554 (Q15554 whole entry): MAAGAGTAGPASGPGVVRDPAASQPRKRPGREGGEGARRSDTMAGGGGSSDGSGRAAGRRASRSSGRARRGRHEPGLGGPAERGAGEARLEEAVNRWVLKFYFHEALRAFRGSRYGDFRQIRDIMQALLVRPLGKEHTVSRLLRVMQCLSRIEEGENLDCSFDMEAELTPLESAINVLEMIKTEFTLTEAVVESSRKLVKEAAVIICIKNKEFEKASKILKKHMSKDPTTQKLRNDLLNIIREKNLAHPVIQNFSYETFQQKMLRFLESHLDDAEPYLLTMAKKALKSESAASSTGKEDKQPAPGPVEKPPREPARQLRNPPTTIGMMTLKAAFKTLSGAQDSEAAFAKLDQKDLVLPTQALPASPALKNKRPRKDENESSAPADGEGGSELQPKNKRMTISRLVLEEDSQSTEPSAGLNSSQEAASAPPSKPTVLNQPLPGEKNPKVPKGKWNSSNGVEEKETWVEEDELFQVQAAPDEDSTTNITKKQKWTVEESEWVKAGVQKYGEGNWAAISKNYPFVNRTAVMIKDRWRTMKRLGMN

Substance | generation of t-circles in FKBP-TRF2 ΔB-complemented MEFs expressing H2B-FRB, with A/C dimerizer for 48 h [1] [%] | percent of cells with more than 10 positive Duolink signals [2]
FRB fused to the C terminus of histone H2B (H2B-FRB), HA-tagged | 50 | –
histone H3 (HeLa cells) (from UniProt P68431 1-136) (natural protein) | – | 26 % of cells
